This passage reports binding signal results from patent US20160024496.

Like-named read-outs stand apart in the source and are kept apart here.

In series [1] the target is T1, ADARB2 (Homo sapiens) (UniProt Q9NS39).
T1 sequence: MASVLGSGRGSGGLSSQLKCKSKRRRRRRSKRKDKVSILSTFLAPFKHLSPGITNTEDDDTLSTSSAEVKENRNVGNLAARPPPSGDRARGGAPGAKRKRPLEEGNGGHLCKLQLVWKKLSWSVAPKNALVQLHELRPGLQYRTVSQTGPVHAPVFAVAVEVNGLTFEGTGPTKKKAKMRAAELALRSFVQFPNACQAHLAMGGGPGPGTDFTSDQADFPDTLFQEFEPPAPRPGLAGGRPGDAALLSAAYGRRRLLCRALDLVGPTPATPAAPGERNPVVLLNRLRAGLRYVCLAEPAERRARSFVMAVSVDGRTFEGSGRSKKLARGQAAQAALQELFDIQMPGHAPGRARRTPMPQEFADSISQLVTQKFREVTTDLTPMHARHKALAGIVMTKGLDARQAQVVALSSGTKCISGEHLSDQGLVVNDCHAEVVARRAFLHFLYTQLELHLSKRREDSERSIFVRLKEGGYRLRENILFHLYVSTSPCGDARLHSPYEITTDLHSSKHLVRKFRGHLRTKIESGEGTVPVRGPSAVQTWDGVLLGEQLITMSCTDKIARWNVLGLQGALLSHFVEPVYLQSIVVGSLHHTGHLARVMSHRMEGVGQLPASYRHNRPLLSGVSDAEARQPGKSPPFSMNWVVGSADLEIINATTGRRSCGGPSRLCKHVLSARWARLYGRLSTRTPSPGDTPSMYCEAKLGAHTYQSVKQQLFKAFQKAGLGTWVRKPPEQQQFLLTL
The note with it: proteome array, scrambled control.

Series [2] deals with CYP2C9 (Homo sapiens) (UniProt P11712). Particulars: proteome array, scrambled control.
The test system of series [3] is T2, DAZ2 (Homo sapiens), Q13117-3.
T2 sequence: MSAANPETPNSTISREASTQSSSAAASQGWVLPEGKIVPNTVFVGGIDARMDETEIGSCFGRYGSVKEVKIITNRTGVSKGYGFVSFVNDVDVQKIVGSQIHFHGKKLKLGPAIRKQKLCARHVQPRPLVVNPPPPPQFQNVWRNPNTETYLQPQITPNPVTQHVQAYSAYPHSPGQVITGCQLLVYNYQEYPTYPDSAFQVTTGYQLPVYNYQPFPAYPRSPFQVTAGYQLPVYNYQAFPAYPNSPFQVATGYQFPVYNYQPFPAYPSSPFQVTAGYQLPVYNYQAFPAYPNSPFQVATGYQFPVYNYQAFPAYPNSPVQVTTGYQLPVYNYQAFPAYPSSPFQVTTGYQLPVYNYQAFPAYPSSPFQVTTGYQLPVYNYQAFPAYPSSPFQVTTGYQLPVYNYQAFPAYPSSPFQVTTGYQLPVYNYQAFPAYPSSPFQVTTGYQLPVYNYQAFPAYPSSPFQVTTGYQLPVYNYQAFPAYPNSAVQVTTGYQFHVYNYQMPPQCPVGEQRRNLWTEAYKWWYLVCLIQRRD
The note with it: proteome array, scrambled control.

For series [4], the system named is T3, DPH2 (Homo sapiens), Q9BQC3-2.
T3 sequence: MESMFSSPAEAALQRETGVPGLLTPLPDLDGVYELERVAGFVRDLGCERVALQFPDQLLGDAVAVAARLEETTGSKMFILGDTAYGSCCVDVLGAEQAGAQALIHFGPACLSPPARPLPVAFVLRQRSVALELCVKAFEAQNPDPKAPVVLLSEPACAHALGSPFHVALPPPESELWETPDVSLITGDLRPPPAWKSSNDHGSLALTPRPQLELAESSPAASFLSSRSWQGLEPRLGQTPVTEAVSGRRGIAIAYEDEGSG
Particulars: proteome array.

Series [5] has as its target T4, HMGB2 (Homo sapiens) (UniProt P26583).
T4 sequence: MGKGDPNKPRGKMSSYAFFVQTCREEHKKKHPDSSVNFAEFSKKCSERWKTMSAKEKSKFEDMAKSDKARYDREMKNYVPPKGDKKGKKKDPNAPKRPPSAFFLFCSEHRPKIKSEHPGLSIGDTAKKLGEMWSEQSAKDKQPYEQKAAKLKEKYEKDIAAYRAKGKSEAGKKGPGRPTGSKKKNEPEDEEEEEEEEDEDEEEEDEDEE
The note with it: proteome array, scrambled control.

Series [6] addresses JARID2 (Homo sapiens) (UniProt Q92833). Particulars: proteome array, scrambled control.
For series [7], the system named is MITF (Homo sapiens), O75030-2. Particulars: proteome array, scrambled control.
Series [8] has as its target T5, MPP7 (Homo sapiens) (UniProt Q5T2T1).
T5 sequence: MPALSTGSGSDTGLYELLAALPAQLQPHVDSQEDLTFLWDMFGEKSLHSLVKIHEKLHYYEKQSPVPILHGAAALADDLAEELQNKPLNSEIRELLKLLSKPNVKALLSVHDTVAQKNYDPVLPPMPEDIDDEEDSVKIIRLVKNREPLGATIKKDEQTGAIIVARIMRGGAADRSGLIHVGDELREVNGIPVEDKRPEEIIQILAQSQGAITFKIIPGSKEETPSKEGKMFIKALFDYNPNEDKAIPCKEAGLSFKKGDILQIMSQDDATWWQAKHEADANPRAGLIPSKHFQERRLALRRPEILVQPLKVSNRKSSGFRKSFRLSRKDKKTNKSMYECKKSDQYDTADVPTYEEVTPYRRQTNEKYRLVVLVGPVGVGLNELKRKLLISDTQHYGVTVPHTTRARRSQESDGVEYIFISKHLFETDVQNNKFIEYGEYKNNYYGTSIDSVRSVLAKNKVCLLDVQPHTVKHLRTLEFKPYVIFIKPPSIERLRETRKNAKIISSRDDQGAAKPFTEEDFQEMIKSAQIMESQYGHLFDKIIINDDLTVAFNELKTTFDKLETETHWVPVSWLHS
Particulars: proteome array, scrambled control.

The target in series [9] is T6, NDST1 (Homo sapiens) (UniProt P52848).
T6 sequence: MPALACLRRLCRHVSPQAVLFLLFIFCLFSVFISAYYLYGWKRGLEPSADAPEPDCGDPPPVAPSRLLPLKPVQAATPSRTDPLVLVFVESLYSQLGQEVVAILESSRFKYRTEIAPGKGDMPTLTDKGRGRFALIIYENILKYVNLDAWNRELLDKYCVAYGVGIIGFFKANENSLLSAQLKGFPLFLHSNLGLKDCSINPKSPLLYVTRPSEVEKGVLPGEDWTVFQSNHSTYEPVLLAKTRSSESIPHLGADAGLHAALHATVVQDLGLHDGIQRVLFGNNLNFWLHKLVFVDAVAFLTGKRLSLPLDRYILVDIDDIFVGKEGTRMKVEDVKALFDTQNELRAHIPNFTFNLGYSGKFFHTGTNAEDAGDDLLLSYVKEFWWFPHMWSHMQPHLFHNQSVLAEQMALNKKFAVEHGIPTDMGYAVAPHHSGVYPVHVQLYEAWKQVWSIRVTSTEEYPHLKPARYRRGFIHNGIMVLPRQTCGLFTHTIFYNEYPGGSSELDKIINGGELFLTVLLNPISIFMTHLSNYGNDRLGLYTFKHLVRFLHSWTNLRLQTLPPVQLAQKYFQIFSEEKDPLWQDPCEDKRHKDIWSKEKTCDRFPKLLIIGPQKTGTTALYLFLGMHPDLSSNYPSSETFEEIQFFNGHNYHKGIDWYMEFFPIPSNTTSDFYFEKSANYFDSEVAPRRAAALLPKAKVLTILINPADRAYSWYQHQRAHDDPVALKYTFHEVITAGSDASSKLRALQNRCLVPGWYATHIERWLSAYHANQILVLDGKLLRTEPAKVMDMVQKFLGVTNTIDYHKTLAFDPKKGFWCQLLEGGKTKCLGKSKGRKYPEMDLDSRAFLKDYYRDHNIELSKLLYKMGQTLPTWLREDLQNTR
Particulars: proteome array, scrambled control.

For series [10], the target named is T7, NUDT6 (Homo sapiens) (UniProt P53370).
T7 sequence: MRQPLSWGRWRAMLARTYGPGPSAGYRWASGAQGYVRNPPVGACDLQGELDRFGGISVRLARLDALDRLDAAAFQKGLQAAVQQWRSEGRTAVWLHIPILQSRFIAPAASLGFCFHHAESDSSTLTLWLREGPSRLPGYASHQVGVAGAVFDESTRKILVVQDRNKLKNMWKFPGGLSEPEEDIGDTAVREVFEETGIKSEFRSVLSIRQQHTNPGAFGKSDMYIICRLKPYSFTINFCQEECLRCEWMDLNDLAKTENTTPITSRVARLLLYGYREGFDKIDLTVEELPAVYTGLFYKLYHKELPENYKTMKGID
The note with it: proteome array, scrambled control.

Series [11] deals with T8, ORAOV1 (Homo sapiens) (UniProt Q8WV07).
T8 sequence: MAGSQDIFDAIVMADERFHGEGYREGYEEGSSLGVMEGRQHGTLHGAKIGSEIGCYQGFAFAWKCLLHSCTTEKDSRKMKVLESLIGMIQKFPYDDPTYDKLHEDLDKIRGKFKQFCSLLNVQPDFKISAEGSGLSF
Particulars: proteome array, scrambled control.

Series [12] deals with PGA5 (Homo sapiens) (UniProt P0DJD9). Particulars: proteome array, scrambled control.
Series [13] deals with T9, PTER (Homo sapiens) (UniProt Q96BW5).
T9 sequence: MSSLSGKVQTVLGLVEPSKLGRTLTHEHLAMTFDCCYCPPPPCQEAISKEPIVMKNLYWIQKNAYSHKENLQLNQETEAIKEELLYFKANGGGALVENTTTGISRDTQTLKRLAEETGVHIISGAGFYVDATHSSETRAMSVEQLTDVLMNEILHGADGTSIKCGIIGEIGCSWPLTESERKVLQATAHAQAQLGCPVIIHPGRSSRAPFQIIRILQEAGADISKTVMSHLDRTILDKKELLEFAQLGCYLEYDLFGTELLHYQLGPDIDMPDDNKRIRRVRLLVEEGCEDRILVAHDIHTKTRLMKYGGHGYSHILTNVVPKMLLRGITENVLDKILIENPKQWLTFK
Particulars: proteome array, scrambled control.

For series [14], the target named is T10, RANGAP1 (Homo sapiens) (UniProt P46060).
T10 sequence: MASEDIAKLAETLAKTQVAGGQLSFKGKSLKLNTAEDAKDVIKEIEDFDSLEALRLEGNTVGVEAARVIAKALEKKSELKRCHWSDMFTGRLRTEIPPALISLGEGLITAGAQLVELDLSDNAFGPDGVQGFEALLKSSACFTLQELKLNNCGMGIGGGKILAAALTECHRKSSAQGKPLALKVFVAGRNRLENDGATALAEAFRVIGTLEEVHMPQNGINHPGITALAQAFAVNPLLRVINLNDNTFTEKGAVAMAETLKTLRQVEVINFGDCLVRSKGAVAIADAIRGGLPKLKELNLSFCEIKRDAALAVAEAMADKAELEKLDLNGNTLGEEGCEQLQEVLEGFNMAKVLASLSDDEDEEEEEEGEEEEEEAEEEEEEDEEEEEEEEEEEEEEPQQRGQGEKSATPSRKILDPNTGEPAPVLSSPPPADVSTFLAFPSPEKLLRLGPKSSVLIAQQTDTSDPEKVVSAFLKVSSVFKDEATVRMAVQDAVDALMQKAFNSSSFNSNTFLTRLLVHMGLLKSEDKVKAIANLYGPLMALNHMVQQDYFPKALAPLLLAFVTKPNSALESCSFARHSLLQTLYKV
Particulars: proteome array, scrambled control.

Series [15] has as its system SOX6 (Homo sapiens), P35712-4. Particulars: proteome array, scrambled control.
Series [16] concerns the target T11, TCL1B (Homo sapiens) (UniProt O95988).
T11 sequence: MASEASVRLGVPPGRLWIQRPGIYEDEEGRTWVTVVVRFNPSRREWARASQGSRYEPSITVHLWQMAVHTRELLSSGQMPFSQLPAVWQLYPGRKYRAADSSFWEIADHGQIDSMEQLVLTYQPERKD
Particulars: proteome array, scrambled control.

Series [17] deals with TRIM32 (Homo sapiens) (UniProt Q13049). Particulars: proteome array, scrambled control.
Series [18] has as its target WBP11 (Homo sapiens) (UniProt Q9Y2W2). Particulars: proteome array, scrambled control.
The test system of series [19] is ZNF695 (Homo sapiens), Q8IW36-1. The note with it: proteome array.
Sequence of ZNF695 (Homo sapiens), Q8IW36-1 (Q8IW36 other isoform, or with tags, fused parts or gaps): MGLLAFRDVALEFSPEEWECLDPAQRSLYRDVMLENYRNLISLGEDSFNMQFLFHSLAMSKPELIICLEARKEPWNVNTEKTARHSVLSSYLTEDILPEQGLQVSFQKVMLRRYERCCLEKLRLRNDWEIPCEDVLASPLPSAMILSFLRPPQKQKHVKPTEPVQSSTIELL

Sequence of WBP11 (Homo sapiens) (Q9Y2W2 whole entry): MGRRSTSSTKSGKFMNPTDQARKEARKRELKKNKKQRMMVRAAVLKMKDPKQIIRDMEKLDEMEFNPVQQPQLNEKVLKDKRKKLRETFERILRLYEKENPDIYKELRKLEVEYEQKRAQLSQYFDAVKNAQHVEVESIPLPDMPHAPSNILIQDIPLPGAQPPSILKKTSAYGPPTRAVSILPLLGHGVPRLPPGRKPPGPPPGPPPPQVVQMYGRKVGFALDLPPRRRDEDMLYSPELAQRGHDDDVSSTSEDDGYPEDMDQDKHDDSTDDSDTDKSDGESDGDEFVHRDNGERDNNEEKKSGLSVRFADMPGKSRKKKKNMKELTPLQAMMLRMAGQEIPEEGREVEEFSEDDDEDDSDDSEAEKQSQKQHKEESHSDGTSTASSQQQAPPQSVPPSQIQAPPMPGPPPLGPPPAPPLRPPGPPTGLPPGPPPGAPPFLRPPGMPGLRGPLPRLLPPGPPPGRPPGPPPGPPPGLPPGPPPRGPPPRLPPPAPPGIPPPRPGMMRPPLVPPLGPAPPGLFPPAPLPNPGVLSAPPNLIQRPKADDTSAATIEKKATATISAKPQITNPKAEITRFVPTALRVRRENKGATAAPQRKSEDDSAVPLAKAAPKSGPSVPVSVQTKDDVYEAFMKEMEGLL
Sequence of PGA5 (Homo sapiens) (P0DJD9 16-388): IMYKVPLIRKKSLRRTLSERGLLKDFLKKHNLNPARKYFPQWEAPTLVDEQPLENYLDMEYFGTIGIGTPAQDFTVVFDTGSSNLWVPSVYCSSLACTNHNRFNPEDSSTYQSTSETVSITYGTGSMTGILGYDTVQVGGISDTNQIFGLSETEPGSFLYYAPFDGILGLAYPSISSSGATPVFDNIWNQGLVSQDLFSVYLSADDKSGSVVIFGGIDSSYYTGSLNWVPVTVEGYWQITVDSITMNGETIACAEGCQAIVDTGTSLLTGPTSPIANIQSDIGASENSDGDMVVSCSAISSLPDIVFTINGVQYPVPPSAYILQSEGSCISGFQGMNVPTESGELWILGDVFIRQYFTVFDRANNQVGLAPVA
Sequence of TRIM32 (Homo sapiens) (Q13049 whole entry): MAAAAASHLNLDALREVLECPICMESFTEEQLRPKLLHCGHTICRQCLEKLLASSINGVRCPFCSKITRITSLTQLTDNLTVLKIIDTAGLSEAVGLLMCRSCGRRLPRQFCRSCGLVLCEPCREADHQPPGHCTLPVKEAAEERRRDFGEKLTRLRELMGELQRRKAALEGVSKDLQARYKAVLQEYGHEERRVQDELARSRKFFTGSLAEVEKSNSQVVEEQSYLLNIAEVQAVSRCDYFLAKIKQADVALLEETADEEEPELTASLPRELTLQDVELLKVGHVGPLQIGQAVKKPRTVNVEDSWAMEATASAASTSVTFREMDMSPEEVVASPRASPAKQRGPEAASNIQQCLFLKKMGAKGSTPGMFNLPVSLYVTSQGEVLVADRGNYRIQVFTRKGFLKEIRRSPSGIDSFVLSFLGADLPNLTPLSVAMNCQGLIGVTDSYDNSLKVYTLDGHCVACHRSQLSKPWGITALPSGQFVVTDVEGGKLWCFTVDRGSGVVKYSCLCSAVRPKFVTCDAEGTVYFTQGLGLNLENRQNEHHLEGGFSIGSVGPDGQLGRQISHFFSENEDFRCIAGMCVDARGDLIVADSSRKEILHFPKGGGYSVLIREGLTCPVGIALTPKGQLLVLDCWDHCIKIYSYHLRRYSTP
Sequence of SOX6 (Homo sapiens), P35712-4 (P35712 other isoform, or with tags, fused parts or gaps): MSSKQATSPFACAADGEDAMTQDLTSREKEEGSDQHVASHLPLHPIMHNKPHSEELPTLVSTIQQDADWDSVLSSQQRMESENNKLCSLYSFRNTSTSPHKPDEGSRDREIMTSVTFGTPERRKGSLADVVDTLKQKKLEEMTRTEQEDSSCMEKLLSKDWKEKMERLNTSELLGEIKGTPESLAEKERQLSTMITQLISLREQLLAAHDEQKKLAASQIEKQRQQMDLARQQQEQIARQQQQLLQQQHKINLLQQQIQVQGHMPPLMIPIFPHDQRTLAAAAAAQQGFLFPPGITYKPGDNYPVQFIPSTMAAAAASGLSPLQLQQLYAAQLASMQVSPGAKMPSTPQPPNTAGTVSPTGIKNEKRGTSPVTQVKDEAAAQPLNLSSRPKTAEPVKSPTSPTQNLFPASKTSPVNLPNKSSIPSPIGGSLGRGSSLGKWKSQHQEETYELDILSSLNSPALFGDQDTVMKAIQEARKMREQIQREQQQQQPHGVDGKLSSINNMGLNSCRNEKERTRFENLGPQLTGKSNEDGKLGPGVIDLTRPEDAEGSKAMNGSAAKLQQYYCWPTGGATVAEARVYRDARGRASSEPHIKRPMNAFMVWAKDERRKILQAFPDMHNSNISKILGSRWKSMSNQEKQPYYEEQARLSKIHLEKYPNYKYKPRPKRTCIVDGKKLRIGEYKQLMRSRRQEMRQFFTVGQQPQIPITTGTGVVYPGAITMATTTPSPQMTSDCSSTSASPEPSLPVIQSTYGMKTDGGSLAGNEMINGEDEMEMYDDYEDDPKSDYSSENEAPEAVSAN
Sequence of MITF (Homo sapiens), O75030-2 (O75030 other isoform, or with tags, fused parts or gaps): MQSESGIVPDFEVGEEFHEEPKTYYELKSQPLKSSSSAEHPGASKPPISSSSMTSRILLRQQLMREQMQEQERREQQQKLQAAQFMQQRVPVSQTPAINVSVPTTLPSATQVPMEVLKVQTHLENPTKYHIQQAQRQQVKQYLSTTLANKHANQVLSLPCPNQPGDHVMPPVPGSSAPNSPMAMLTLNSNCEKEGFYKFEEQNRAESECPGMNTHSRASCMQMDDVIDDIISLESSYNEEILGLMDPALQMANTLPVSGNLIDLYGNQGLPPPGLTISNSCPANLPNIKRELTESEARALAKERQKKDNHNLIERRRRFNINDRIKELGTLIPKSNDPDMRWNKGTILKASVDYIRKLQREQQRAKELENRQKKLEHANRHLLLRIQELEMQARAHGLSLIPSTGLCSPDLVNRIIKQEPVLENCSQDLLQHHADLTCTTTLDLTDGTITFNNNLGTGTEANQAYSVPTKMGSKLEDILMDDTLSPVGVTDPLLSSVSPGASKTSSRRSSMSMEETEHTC
Sequence of JARID2 (Homo sapiens) (Q92833 whole entry): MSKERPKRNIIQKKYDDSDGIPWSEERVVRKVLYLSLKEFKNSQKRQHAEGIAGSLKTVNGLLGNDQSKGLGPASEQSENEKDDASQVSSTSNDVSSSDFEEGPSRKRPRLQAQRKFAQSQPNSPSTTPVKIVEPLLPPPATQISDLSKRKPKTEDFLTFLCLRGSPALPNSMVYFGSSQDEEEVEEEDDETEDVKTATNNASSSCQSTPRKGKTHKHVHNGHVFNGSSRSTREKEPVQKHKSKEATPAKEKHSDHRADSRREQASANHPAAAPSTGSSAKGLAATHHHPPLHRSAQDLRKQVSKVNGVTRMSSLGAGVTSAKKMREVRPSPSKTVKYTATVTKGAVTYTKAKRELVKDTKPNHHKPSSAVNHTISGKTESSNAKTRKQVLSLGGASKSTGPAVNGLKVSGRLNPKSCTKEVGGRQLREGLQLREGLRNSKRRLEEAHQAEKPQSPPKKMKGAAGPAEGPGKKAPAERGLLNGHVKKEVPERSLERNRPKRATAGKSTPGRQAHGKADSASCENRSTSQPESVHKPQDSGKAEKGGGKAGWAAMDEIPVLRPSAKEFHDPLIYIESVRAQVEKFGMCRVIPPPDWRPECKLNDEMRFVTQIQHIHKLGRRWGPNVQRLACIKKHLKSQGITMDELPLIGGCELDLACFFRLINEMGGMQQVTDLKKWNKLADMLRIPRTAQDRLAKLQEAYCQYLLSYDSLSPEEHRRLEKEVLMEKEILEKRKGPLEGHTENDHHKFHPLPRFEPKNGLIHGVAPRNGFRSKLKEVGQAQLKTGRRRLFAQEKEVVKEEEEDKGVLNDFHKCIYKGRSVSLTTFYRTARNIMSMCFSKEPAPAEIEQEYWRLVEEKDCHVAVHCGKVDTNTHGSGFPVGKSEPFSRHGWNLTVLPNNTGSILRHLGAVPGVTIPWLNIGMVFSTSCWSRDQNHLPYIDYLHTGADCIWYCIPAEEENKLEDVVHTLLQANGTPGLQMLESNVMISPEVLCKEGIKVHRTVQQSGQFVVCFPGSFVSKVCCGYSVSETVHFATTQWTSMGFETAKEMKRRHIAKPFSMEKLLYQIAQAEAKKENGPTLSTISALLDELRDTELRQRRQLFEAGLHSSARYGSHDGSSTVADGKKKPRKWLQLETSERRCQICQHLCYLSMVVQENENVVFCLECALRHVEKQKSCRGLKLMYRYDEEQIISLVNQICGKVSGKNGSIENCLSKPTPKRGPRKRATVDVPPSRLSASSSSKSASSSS
Sequence of CYP2C9 (Homo sapiens) (P11712 whole entry): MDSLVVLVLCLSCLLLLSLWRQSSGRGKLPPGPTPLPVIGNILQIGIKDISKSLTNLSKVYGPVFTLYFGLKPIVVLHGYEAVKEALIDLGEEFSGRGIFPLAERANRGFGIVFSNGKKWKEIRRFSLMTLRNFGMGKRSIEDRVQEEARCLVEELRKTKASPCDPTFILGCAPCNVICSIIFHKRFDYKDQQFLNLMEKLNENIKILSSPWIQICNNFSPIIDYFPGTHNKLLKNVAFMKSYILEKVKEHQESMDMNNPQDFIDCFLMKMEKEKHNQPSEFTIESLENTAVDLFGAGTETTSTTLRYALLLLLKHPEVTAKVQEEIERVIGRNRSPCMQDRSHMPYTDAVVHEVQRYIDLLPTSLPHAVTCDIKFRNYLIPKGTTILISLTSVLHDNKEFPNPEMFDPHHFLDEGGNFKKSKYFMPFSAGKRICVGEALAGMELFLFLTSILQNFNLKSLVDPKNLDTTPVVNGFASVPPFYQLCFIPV

As to GC-scrambled RNA, the binding signal in series [1] was -0.2 Z-score; in [2], 1.49 Z-score; in series [3], 7.8 Z-score; in series [4] (scrambled control), 3.43 Z-score; in [5], 1.23 Z-score; in [6], 0.64 Z-score. Moreover, the binding signal was determined as 6.71 Z-score in series [7]; 0.3 Z-score in series [8]; 8.06 Z-score in [9]; 8.38 Z-score in [10]; 0.41 Z-score in series [11]; 2.96 Z-score in [12]. The binding signal was 4.09 Z-score in series [13]; 1.21 Z-score in series [14]; 1.16 Z-score in series [15]; 5.42 Z-score in series [16]; 4.63 Z-score in series [17]; -0.17 Z-score in series [18]. The substance also gave a binding signal in series [19] (scrambled control) of 2.18 Z-score.

Take “GGGGCCGGGGCCGGGGCCGGGGCCGGGGCCGGGGCCGGG [GGGGCCx6.5 RNA]”: the binding signal in series [4] ([none], delta Z 10.61) was found to be 14 Z-score; in series [19] ([none], delta Z 2.58), 4.76 Z-score.
